Assay results as given in patent US20200199204A1 (UNITED STATES OF AMERICA AS REPRESENTED BY THE SECRETARY …, published 2020).

What was measured:
Assay in all cases: cell-based or functional assay
HIV-1 Env of 6405.v4.c34 = HIV-1 Env of 6405.v4.c34 (HIV-1)
HIV-1 Env of 191821.E6.1 = HIV-1 Env of 191821.E6.1 (HIV-1)
HIV-1 Env of DU422.01 = HIV-1 Env of DU422.01 (HIV-1)
HIV-1 Env of 96ZM651.02 = HIV-1 Env of 96ZM651.02 (HIV-1)
HIV-1 Env of PVO.04 = HIV-1 Env of PVO.04 (HIV-1)
HIV-1 Env of TRJO.58 = HIV-1 Env of TRJO.58 (HIV-1)
HIV-1 Env of CNE3 = HIV-1 Env of CNE3 (HIV-1)
HIV-1 Env of C1080.c3 = HIV-1 Env of C1080.c3 (HIV-1)
HIV-1 Env of KER2018.11 = HIV-1 Env of KER2018.11 (HIV-1)
HIV-1 Env of ZM233.6 = HIV-1 Env of ZM233.6 (HIV-1)
HIV-1 Env of SC422.8 = HIV-1 Env of SC422.8 (HIV-1)
HIV-1 Env of 3016.V5.c36 = HIV-1 Env of 3016.V5.c36 (HIV-1)
HIV-1 Env of Q23.17 = HIV-1 Env of Q23.17 (HIV-1)
HIV-1 Env of UG037.8 = HIV-1 Env of UG037.8 (HIV-1)
HIV-1 Env of CAP45.G3 = HIV-1 Env of CAP45.G3 (HIV-1)
HIV-1 Env of TH976.17 = HIV-1 Env of TH976.17 (HIV-1)
HIV-1 Env of ZM109.4 = HIV-1 Env of ZM109.4 (HIV-1)
HIV-1 Env of ZM197.7 = HIV-1 Env of ZM197.7 (HIV-1)
HIV-1 Env of ZM135.10a = HIV-1 Env of ZM135.10a (HIV-1)
HIV-1 Env of CAAN.A2 = HIV-1 Env of CAAN.A2 (HIV-1)
HIV-1 Env of DU172.17 = HIV-1 Env of DU172.17 (HIV-1)
HIV-1 Env of Q259.d2.17 = HIV-1 Env of Q259.d2.17 (HIV-1)
HIV-1 Env of RW020.2 = HIV-1 Env of RW020.2 (HIV-1)
HIV-1 Env of BG505.w6m = HIV-1 Env of BG505.w6m (HIV-1)
HIV-1 Env of CAP256.PI = HIV-1 Env of CAP256.PI (HIV-1)
HIV-1 Env of WITO.33 = HIV-1 Env of WITO.33 (HIV-1)
HIV-1 Env of CM244.ec1 = HIV-1 Env of CM244.ec1 (HIV-1)
HIV-1 Env of Q168.a2 = HIV-1 Env of Q168.a2 (HIV-1)
HIV-1 Env of AC10.29 = HIV-1 Env of AC10.29 (HIV-1)
HIV-1 Env of MB201 = HIV-1 Env of MB201 (HIV-1)
HIV-1 Env of CAP210.E8 = HIV-1 Env of CAP210.E8 (HIV-1)
HIV-1 Env of ZM53.12 = HIV-1 Env of ZM53.12 (HIV-1)
HIV-1 Env of CAP256.SU = HIV-1 Env of CAP256.SU (HIV-1)
HIV-1 Env of Q461.e2 = HIV-1 Env of Q461.e2 (HIV-1)
HIV-1 Env of ZM214.15 = HIV-1 Env of ZM214.15 (HIV-1)
HIV-1 Env of REJO.67 = HIV-1 Env of REJO.67 (HIV-1)
HIV-1 Env of CAP244.D3 = HIV-1 Env of CAP244.D3 (HIV-1)
HIV-1 Env of Q842.d12 = HIV-1 Env of Q842.d12 (HIV-1)
HIV-1 Env of DU156.12 = HIV-1 Env of DU156.12 (HIV-1)
HIV-1 Env of 0260.v5.c36 = HIV-1 Env of 0260.v5.c36 (HIV-1)
HIV-1 Env of RHPA.7 = HIV-1 Env of RHPA.7 (HIV-1)
HIV-1 Env of QH0692.42 = HIV-1 Env of QH0692.42 (HIV-1)
HIV-1 Env of MB539.2B7 = HIV-1 Env of MB539.2B7 (HIV-1)
HIV-1 Env of Q769.d22 = HIV-1 Env of Q769.d22 (HIV-1)
HIV-1 Env of THRO.18 = HIV-1 Env of THRO.18 (HIV-1)
HIV-1 Env of KER2008.12 = HIV-1 Env of KER2008.12 (HIV-1)
HIV-1 Env of 6535.3 = HIV-1 Env of 6535.3 (HIV-1)
HIV-1 Env of ZM249.1 = HIV-1 Env of ZM249.1 (HIV-1)
HIV-1 Env of TRO.11 = HIV-1 Env of TRO.11 (HIV-1)

B1: CAP256-VRC26.03 (antibody, V domains shown)
VH: EVQLVESGGGVVQPGKSLRLSCAASRFSFNRYGMHWVRQAPGKGLEWVAAISYDGTDKYHADKVWGRFTISRDNSKNTLYLQMNSLRAEDTALYYCAKDLREDECEEWWSDYYDFGKQLPCRKSRGVAGIFDGWGQGTMVTVSS
VL: QSVLTQPPSVSAAPGQKVTISCSGSSSNIGNNFVSWYQQRPGTAPKILIYENNKRPSETPDRFSGSKSGTSATLAITGLQTADEAEYYCATWSASLSSARVFGTGTRITVLG
- neutralization IC50 (HIV-1 Env of 6405.v4.c34): > 50 µg/mL
- neutralization IC50 (HIV-1 Env of 191821.E6.1): > 50 µg/mL
- neutralization IC50 (HIV-1 Env of DU422.01): 0.134 µg/mL
- neutralization IC50 (HIV-1 Env of 96ZM651.02): > 50 µg/mL
- neutralization IC50 (HIV-1 Env of PVO.04): > 50 µg/mL
- neutralization IC50 (HIV-1 Env of TRJO.58): > 50 µg/mL
- neutralization IC50 (HIV-1 Env of CNE3): > 50 µg/mL
- neutralization IC50 (HIV-1 Env of C1080.c3): 0.119 µg/mL
- neutralization IC50 (HIV-1 Env of KER2018.11): 0.003 µg/mL
- neutralization IC50 (HIV-1 Env of ZM233.6): 0.032 µg/mL
- neutralization IC50 (HIV-1 Env of SC422.8): > 50 µg/mL
- neutralization IC50 (HIV-1 Env of 3016.V5.c36): 0.118 µg/mL
- neutralization IC50 (HIV-1 Env of Q23.17): > 50 µg/mL
- neutralization IC50 (HIV-1 Env of UG037.8): > 50 µg/mL
- neutralization IC50 (HIV-1 Env of CAP45.G3): 10.7 µg/mL
- neutralization IC50 (HIV-1 Env of TH976.17): > 50 µg/mL
- neutralization IC50 (HIV-1 Env of ZM109.4): > 50 µg/mL
- neutralization IC50 (HIV-1 Env of ZM197.7): 0.16 µg/mL
- neutralization IC50 (HIV-1 Env of ZM135.10a): > 50 µg/mL
- neutralization IC50 (HIV-1 Env of CAAN.A2): > 50 µg/mL
- neutralization IC50 (HIV-1 Env of DU172.17): > 50 µg/mL
- neutralization IC50 (HIV-1 Env of Q259.d2.17): 0.014 µg/mL
- neutralization IC50 (HIV-1 Env of RW020.2): > 50 µg/mL
- neutralization IC50 (HIV-1 Env of BG505.w6m): 4.76 µg/mL
- neutralization IC50 (HIV-1 Env of CAP256.PI): > 50 µg/mL
- neutralization IC50 (HIV-1 Env of WITO.33): > 50 µg/mL
- neutralization IC50 (HIV-1 Env of CM244.ec1): 0.003 µg/mL
- neutralization IC50 (HIV-1 Env of Q168.a2): > 50 µg/mL
- neutralization IC50 (HIV-1 Env of AC10.29): > 50 µg/mL
- neutralization IC50 (HIV-1 Env of MB201): > 50 µg/mL
- neutralization IC50 (HIV-1 Env of CAP210.E8): 0.011 µg/mL
- neutralization IC50 (HIV-1 Env of ZM53.12): 0.008 µg/mL
- neutralization IC50 (HIV-1 Env of CAP256.SU): 0.004 µg/mL
- neutralization IC50 (HIV-1 Env of Q461.e2): > 50 µg/mL
- neutralization IC50 (HIV-1 Env of ZM214.15): 1.5 µg/mL
- neutralization IC50 (HIV-1 Env of REJO.67): > 50 µg/mL
- neutralization IC50 (HIV-1 Env of CAP244.D3): > 50 µg/mL
- neutralization IC50 (HIV-1 Env of Q842.d12): > 50 µg/mL
- neutralization IC50 (HIV-1 Env of DU156.12): 0.117 µg/mL
- neutralization IC50 (HIV-1 Env of 0260.v5.c36): > 50 µg/mL
- neutralization IC50 (HIV-1 Env of RHPA.7): > 50 µg/mL
- neutralization IC50 (HIV-1 Env of QH0692.42): > 50 µg/mL
- neutralization IC50 (HIV-1 Env of MB539.2B7): > 50 µg/mL
- neutralization IC50 (HIV-1 Env of Q769.d22): > 50 µg/mL
- neutralization IC50 (HIV-1 Env of THRO.18): > 50 µg/mL
- neutralization IC50 (HIV-1 Env of KER2008.12): > 50 µg/mL
- neutralization IC50 (HIV-1 Env of 6535.3): > 50 µg/mL
- neutralization IC50 (HIV-1 Env of ZM249.1): 0.039 µg/mL
- neutralization IC50 (HIV-1 Env of TRO.11): > 50 µg/mL
